In PMC12455949 (Journal of Virology, 2025) one finds Kd, koff and kon data, which are given here for three molecules.

B1: mAb #1664 (antibody, V domains shown)
VH: EVQVMQSGAEARMTGATVKISCKASGYTFSDYFLHWVKQAPGKGLEWMGLVDVDNGEVRYAEKFQGRVTITADTSTETAYLEMTTVTSGDTAVYYCASTTPRGGNPSVYNYFFVDVWGKGTTVTVSS
VL: QPVLTQSSSASASLGSSVKLTCTLSSGHDNYIIAWHQQQPGKAPRYLMQVGAGGTYNKGSGVPHRFSGSSSGADRYLTISNLQSDDEADYYCETWDSKTVFGGGTTLTVL
B2: mAb TJ5-1 (antibody, V domains shown)
VH: EVQLVQSGAEVKKPGASVKVSCKASGYTFTGFYLHWVRQAPGQGLEWMGWINPHSGDTDFAQKFQGKVTMTRDTSSNTVYMDVNRLTSDDTAVYYCVKNDIVLGMGVWGQGTTVIVSS
VL: QSVLTQPPSVSGAPGQRVTISCTGSSSNIGAGYNVYWFQQLPPTAPKLLNYGDNNRPSGVPDRFSASKSGTSASLAITGLQAEDEAEYYCQSYDSSLNAYVFGTGTKVTVL
B3: mAb TJ5-13 (antibody, V domains shown)
V domain 1: QVQLVQSGAEVKKPGSSVKVSCEASGDTFTTYSGINWVRQAPGQGLEWMGGVLPNFGSPNYAQRFQGRITITVDRSTSLVHMELTNLRSDDTAVYYCTETGAYNSVGYFPYFQFRGQGTLVSVSS
V domain 2: QSVLTQPPSVSGAPGQRVTISCTGSSSNIGADYDVHWYQQLPGTAPKLLIFGNNNRPSGVPDRFSGSKSGTSASLAITGLQAEDEADYYCQSFDKSLSGSFVFGTGTKVTGQ

In one assay the target is COBRA HA J4 (COBRA J4, designed from influenza A …). The assay can be described thus: BLI. The following applies: both partners purified.
Broadly, the Kd is a measure of binding affinity in units of concentration. Low values mean higher affinity, high ones lower affinity. By koff is commonly meant a measure of how fast the partners let go of each other. The low end stands for slow dissociation, the high end for fast dissociation. As a reminder, the kon is the rate constant with which the complex forms. Molecule B1 came in with a Kd of 15.2 nM, a koff of 0.000454 s⁻¹ and a kon of 30100 M⁻¹ s⁻¹.
On the same counts, the results for B2 are 0.23 nM, 6.67e-05 s⁻¹ and 284000 M⁻¹ s⁻¹.
The corresponding values for B3 are 0.26 nM, 3.06e-05 s⁻¹ and 120000 M⁻¹ s⁻¹.

In the next assay the target is COBRA HA TJ2 (COBRA TJ2, designed from influenza A …). The assay can be described thus: BLI. Particulars: both partners purified.
In turn, B1 returned a Kd of 0.45 nM, a koff of 5.44e-05 s⁻¹ and a kon of 121000 M⁻¹ s⁻¹.
Regarding B2, the Kd was 5.64 nM, the koff stood at 0.00348 s⁻¹ and the kon turned out to be 230000 M⁻¹ s⁻¹.
The corresponding values for B3 are 0.05 nM, 8.68e-06 s⁻¹ and 159000 M⁻¹ s⁻¹.
